Measurements: patent publication US20230130737A1

Assays:
[1] = target: trifunctional high FHR4-valence heteromultimer multi-FHR4.C4bpα.His/multi-2D3 VHH anti-Her2.C4bpα.FLAG/mono-eGFP.C4bpβ (human) (UniProt Q92496); test: SPR (Biacore); FH multimer immobilised via Ni2+/NTA, C3b dose series as analyte
[2] = target: trifunctional high FHR4-valence heteromultimer multi-FHR4.C4bpα.His/multi-2D3 VHH anti-Her2.C4bpα.FLAG/mono-eGFP.C4bpβ (human) (UniProt Q92496); test: SPR (Biacore); FH multimer immobilised via Ni2+/NTA, C3b dose series with about 20 µg/ml Factor B as analyte
[3] = target: trifunctional high FHR4-valence heteromultimer multi-FHR4.C4bpα.His/multi-2D3 VHH anti-Her2.C4bpα.FLAG/mono-eGFP.C4bpβ (human) (UniProt Q92496); test: SPR (Biacore); bound RU with factor B against C3b alone
[4] = target: trifunctional high FHR4-valence heteromultimer multi-FHR4.C4bpα.His/multi-2D3 VHH anti-Her2.C4bpα.FLAG/mono-eGFP.C4bpβ (human) (UniProt Q92496); test: SPR (Biacore); affinity with factor B against C3b alone

Sequence of trifunctional high FHR4-valence heteromultimer multi-FHR4.C4bpα.His/multi-2D3 VHH anti-Her2.C4bpα.FLAG/mono-eGFP.C4bpβ (human) (Q92496 other isoform, or with tags, fused parts or gaps, chain 1 of 3): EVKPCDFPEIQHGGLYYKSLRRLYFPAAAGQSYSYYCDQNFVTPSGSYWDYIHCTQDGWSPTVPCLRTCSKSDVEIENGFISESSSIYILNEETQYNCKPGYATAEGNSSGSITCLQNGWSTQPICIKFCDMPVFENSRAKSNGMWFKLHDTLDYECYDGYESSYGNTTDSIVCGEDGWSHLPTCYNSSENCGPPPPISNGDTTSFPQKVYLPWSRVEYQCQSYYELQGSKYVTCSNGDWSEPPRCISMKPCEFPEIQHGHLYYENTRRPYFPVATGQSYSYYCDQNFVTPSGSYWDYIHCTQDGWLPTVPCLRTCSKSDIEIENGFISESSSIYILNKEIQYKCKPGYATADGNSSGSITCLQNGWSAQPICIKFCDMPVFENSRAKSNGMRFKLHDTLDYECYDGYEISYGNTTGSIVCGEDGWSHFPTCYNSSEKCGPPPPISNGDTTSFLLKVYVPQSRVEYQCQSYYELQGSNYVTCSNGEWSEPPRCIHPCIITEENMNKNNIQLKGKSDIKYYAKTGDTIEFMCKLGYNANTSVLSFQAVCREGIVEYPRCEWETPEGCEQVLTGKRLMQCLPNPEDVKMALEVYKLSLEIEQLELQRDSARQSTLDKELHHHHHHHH
Sequence of trifunctional high FHR4-valence heteromultimer multi-FHR4.C4bpα.His/multi-2D3 VHH anti-Her2.C4bpα.FLAG/mono-eGFP.C4bpβ (human) (P04003 540-597, chain 2 of 3, further chain): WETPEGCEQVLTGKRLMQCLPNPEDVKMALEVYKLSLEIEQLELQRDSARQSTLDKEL
Sequence of trifunctional high FHR4-valence heteromultimer multi-FHR4.C4bpα.His/multi-2D3 VHH anti-Her2.C4bpα.FLAG/mono-eGFP.C4bpβ (human) (P20851 137-252, chain 3 of 3, further chain): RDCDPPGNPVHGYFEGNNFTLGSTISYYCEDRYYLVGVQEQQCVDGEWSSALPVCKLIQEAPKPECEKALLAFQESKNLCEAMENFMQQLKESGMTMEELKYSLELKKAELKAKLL

Row | Kd [1] [nM] | Kd [2] [nM] | enhancement factor of bound C3b against C3b alone [3] [fold] | increase of binding affinity against C3b alone [4] [logs] | Substance
1 | 952 |  |  |  | C3b (from UniProt P01024 749-1663)
2 |  | 8.73 | 5 | 2 | C3b in the presence of Factor B (about 20 µg/ml) (from UniProt P01024 23-1663; P00751 26-764)
